# Columns and labels:
# [1] = target: T1, TUTase (Homo sapiens, UniProt Q5TAX3); test: In vitro TUTase activity (uridylation) assay; type: biochemical; conditions: chain terminator; prevents oligo-U tail elongation
# T1 construct: Flag; made in house; host or cells: HEK293 / HEK293T cells (transient transfection, anti-Flag M2 purification)
# Description: In vitro TUTase assays can be employed also. Some of the hit compounds may influence Lin28A-TUTase activity independent of altered expression levels. […] For in vitro uridylation assays, synthetic pre-let-7 RNA is incubated with the affinity-purified proteins in the presence of [α-^32P]-UTP.
# A pilot screen is performed on the in vitro assay, using a chemical library that contains a collection of nucleotide analogs. The catalytic activity of the TUTase is inhibited by certain nucleotide analogs, and that the identification of these compounds through HTS will lead to their utility as a novel chemotherapeutic in Lin28A-expressing cancers. There are readily available libraries of such compounds; similar compounds have already been applied in the clinic. […] Then, putative hits from this primary screen are evaluated through secondary screens that include dose curves, in vitro TUTase activity assays, and analyses of let-7 expression by q.RT-PCR on compound-treated cells. […]
# Purified proteins were incubated with 4 pmol of unlabelled synthetic RNA (Dharmacon) for 1 hour at 37° C. in a 30 μl reaction mixture containing 100 mM KCl, 20 mM Tris-HCl pH 7.6, 10% Glycerol, 125 nM [α-^32P]UTP, 3.2 mM MgCl2, 40 U RNasin ribonuclease inhibitor (Promega). Products were resolved on 15% denaturing polyacrylamide gels and bands were detected by autoradiography.
# [2] = target: pre-let-7g; test: EMSA of recombinant Lin28A and Lin28B with pre-let-7g; type: binding; conditions: 0.5 nM 5′-end labeled pre-let-7g, without competitor yeast tRNA, estimated, read-out: apparent Kd
# Description: (§1) Furthermore, Lin28B directly binds and sequesters pri-let-7. To further dissect the mechanism of the Lin28B-mediated let-7 processing block, the relative abilities of recombinant human Lin28A and Lin28B proteins to bind pre-let-7 were compared. (FIG. 7A, 7B and FIG. 8). EMSA was performed with pre-let-7g to analyze the relative binding affinities of the two recombinant proteins. Lin28A and Lin28B have apparent Kds of approximately 0.6 nM and 0.5 nM, respectively (FIG. 7B). Both these estimated Kds are much lower than a previously reported for recombinant mouse Lin28A. This difference is likely due to the omission here of nonspecific yeast tRNA competitor used previously in the binding buffer. Piskounova et al., 2008. […] Collectively, these assays reveal that both Lin28 proteins can directly bind to let-7 precursors with high-affinity in vitro.
# (§2) Transformed BL21-CodonPlus® Competent bacteria (Stratagene) were grown to an OD600 nm of 0.4-0.6. […] Band intensities of scanned gels were quantified using ImageJ software and used to calculate percentage of probe bound. […] […] Percent active protein was determined using stoichiometric binding reactions as described in Ryder et al. (2008) Hills equation for specific binding with one site, Y=Bmax*X^h= […]
# [3] = tested on: pri-let-7g; test: EMSA of recombinant Lin28A and Lin28B with pri-let-7g; type: binding; conditions: in vitro transcribed uniformly labeled pri-let-7g
# Description: as §1, §2
# T1 sequence (Q5TAX3 whole entry): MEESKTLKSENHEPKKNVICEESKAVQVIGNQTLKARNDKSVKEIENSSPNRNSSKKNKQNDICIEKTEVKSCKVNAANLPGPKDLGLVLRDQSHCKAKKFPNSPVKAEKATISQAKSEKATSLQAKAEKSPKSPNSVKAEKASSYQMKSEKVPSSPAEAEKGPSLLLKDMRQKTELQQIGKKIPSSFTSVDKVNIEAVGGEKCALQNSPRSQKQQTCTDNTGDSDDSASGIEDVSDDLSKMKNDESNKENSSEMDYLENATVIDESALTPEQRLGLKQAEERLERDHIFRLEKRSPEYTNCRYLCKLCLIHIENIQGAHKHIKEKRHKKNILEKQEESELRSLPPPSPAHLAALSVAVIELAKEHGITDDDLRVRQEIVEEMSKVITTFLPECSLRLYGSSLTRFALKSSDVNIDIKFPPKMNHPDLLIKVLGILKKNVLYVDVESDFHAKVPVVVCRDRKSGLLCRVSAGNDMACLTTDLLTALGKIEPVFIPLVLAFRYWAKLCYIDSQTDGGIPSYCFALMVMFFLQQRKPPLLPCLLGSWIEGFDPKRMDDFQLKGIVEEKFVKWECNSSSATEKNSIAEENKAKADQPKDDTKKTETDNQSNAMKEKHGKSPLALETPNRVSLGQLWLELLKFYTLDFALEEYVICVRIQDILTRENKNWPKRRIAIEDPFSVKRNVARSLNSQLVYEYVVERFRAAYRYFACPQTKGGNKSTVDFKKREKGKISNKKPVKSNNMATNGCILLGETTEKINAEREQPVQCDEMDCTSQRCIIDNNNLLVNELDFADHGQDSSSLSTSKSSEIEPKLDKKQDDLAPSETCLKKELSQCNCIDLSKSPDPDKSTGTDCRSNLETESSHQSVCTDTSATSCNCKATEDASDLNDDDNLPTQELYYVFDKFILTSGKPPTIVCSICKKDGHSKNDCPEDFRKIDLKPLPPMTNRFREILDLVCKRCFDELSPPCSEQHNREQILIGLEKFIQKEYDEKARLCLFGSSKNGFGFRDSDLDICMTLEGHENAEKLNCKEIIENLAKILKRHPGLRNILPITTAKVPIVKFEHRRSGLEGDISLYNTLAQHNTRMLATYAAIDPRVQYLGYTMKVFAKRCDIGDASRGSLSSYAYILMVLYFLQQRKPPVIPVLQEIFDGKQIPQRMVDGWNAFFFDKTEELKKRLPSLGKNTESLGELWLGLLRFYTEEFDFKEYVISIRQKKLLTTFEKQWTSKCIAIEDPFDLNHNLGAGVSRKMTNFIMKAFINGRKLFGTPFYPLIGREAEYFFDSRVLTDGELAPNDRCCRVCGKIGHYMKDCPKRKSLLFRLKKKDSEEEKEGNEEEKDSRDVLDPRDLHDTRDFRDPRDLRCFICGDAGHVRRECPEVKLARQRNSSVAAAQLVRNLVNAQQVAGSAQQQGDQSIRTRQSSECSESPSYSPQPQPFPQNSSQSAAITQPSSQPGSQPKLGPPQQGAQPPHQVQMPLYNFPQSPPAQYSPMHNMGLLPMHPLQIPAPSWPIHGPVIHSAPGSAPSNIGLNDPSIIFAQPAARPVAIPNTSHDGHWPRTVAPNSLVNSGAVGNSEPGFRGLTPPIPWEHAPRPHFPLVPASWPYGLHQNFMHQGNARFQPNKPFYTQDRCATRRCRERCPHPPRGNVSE
Molecule,TUTase activity in vitro [1],Kd [2],binding to pri-let-7g [3]
"O=c1ccn([C@H]2CC[C@@H](COP(=O)(O)OP(=O)(O)OP(=O)(O)O)O2)c(=O)[nH]1 [2′,3′-dideoxy-UTP]",effectively inhibits TUTase activity in vitro,–,–
"Lin28B: purified recombinant human His-tagged Lin28B RNA-binding protein (protein, left off: small tags and cut ends) MAEGGASKGGGEEPGKLPEPAEEESQVLRGTGHCKWFNVRMGFGFISMINREGSPLDIPVDVFVHQSKLFMEGFRSLKEGEPVEFTFKKSSKGLESIRVTGPGGSPCLGSERRPKGKTLQKRKPKGDRCYNCGGLDHHAKECSLPPQPKKCHYCQSIMHMVANCPHKNVAQPPASSQGRQEAESQPCTSTLPREVGGGHGCTSPPFPQEARAEISERSGRSPQEASSTKSSIAPEEQSKKGPSVQKRKKT",–,~0.5 nM,able to bind pri-let-7g with similar affinities
"Lin28A: purified recombinant human His-tagged Lin28A RNA-binding protein (protein, UniProt Q9H9Z2 2-209, looked up, His tag) Protein lin-28 homolog A: GSVSNQQFAGGCAKAAEEAPEEAPEDAARAADEPQLLHGAGICKWFNVRMGFGFLSMTARAGVALDPPVDVFVHQSKLHMEGFRSLKEGEAVEFTFKKSAKGLESIRVTGPGGVFCIGSERRPKGKSMQKRRSKGDRCYNCGGLDHHAKECKLPPQPKKCHFCQSISHMVASCPLKAQQGPSAQGKPTYFREEEEEIHSPTLLPEAQN",–,~0.6 nM,able to bind pri-let-7g with similar affinities
